From patent US20120045438A1 (Janssen / Centocor, published 2012)

Molecular target: T1, human IL-13 R130Q variant (R110Q of the mature chain) (human, UniProt P35225 35-146, Biotinylated on amines (NHS-LC-biotin, 4:1) in ELISA, panning and competition assays. The letters are unchanged.)
T1 construct: R130Q counts from Met 1 of the signal peptide, R110Q on the mature chain; Bought from Peprotech; also called IL-13 R110Q; b-R130Q
Assay: single-point (10 nM) phage Fab ELISA on biotinylated IL-13 R130Q

Binder | % of Lc16Hc7
Phage # 54 Fab (IL-13-142 library) (Fab, V domains shown, Fab on phage pIX) VH: QVTLKESGPVLVKPTETLTLTCTVSGFSLSTYGMGVGWIRQPPGKALEWLAHIWWDDVKRYNPALKSRLTISKDTSKSQVVLTMTNMDPVDTATYYCARMGSDYDVWFDYWGQGTLVTVSS VL: DIQMTQSPSTLSASVGDRVTITCRASKSISKYLAWYQQKPGKAPKLLIYSGSTLQSGVPSRFSGSGSGTEFTLTISSLQPDDFATYYCQQHDWGPYTFGGGTKVEIK | 361%
Phage # 09 Fab (IL-13-142 library) (Fab, V domains shown, Fab on phage pIX) VH: QVTLKESGPVLVKPTETLTLTCTVSGFSLSTYGMGVGWIRQPPGKALEWLAHIWWDDVKRYNPALKSRLTISKDTSKSQVVLTMTNMDPVDTATYYCARMGSDYDVWFDYWGQGTLVTVSS VL: DIQMTQSPSTLSASVGDRVTITCRASKSISKYLAWYQQKPGKAPKLLIYSGSTLQSGVPSRFSGSGSGTEFTLTISSLQPDDFATYYCQQHLDVPYTFGGGTKVEIK | 171%
Phage # 18 Fab (IL-13-142 library) (Fab, V domains shown, Fab on phage pIX) VH: QVTLKESGPVLVKPTETLTLTCTVSGFSLSTYGMGVGWIRQPPGKALEWLAHIWWDDVKRYNPALKSRLTISKDTSKSQVVLTMTNMDPVDTATYYCARMGSDYDVWFDYWGQGTLVTVSS VL: DIQMTQSPSTLSASVGDRVTITCRASKSISKYLAWYQQKPGKAPKLLIYSGSTLQSGVPSRFSGSGSGTEFTLTISSLQPDDFATYYCQQWDGGPYTFGGGTKVEIK | 231%
Phage # 11 Fab (IL-13-142 library) (Fab, V domains shown, Fab on phage pIX) VH: QVTLKESGPVLVKPTETLTLTCTVSGFSLSTYGMGVGWIRQPPGKALEWLAHIWWDDVKRYNPALKSRLTISKDTSKSQVVLTMTNMDPVDTATYYCARMGSDYDVWFDYWGQGTLVTVSS VL: DIQMTQSPSTLSASVGDRVTITCRASKSISKYLAWYQQKPGKAPKLLIYSGSTLQSGVPSRFSGSGSGTEFTLTISSLQPDDFATYYCQQQDVGPYTFGGGTKVEIK | 229%
Phage # 15 Fab (IL-13-142 library) (Fab, V domains shown, Fab on phage pIX) VH: QVTLKESGPVLVKPTETLTLTCTVSGFSLSTYGMGVGWIRQPPGKALEWLAHIWWDDVKRYNPALKSRLTISKDTSKSQVVLTMTNMDPVDTATYYCARMGSDYDVWFDYWGQGTLVTVSS VL: DIQMTQSPSTLSASVGDRVTITCRASKSISKYLAWYQQKPGKAPKLLIYSGSTLQSGVPSRFSGSGSGTEFTLTISSLQPDDFATYYCQQPLDAPYTFGGGTKVEIK | 154%
Phage # 35 Fab (IL-13-142 library) (Fab, V domains shown, Fab on phage pIX) VH: QVTLKESGPVLVKPTETLTLTCTVSGFSLSTYGMGVGWIRQPPGKALEWLAHIWWDDVKRYNPALKSRLTISKDTSKSQVVLTMTNMDPVDTATYYCARMGSDYDVWFDYWGQGTLVTVSS VL: DIQMTQSPSTLSASVGDRVTITCRASKSISKYLAWYQQKPGKAPKLLIYSGSTLQSGVPSRFSGSGSGTEFTLTISSLQPDDFATYYCQQHDRGPYTFGGGTKVEIK | 296%
Phage # 22 Fab (IL-13-142 library) (Fab, V domains shown, Fab on phage pIX) VH: QVTLKESGPVLVKPTETLTLTCTVSGFSLSTYGMGVGWIRQPPGKALEWLAHIWWDDVKRYNPALKSRLTISKDTSKSQVVLTMTNMDPVDTATYYCARMGSDYDVWFDYWGQGTLVTVSS VL: DIQMTQSPSTLSASVGDRVTITCRASKSISKYLAWYQQKPGKAPKLLIYSGSTLQSGVPSRFSGSGSGTEFTLTISSLQPDDFATYYCQQHDPGPYTFGGGTKVEIK | 313%
Phage # 01 Fab (IL-13-142 library) (Fab, V domains shown, Fab on phage pIX) VH: QVTLKESGPVLVKPTETLTLTCTVSGFSLSTYGMGVGWIRQPPGKALEWLAHIWWDDVKRYNPALKSRLTISKDTSKSQVVLTMTNMDPVDTATYYCARMGSDYDVWFDYWGQGTLVTVSS VL: DIQMTQSPSTLSASVGDRVTITCRASKSISKYLAWYQQKPGKAPKLLIYSGSTLQSGVPSRFSGSGSGTEFTLTISSLQPDDFATYYCQQHWWGPYTFGGGTKVEIK | 222%
Phage # 32 Fab (IL-13-142 library) (Fab, V domains shown, Fab on phage pIX) VH: QVTLKESGPVLVKPTETLTLTCTVSGFSLSTYGMGVGWIRQPPGKALEWLAHIWWDDVKRYNPALKSRLTISKDTSKSQVVLTMTNMDPVDTATYYCARMGSDYDVWFDYWGQGTLVTVSS VL: DIQMTQSPSTLSASVGDRVTITCRASKSISKYLAWYQQKPGKAPKLLIYSGSTLQSGVPSRFSGSGSGTEFTLTISSLQPDDFATYYCQQHLGTPYTFGGGTKVEIK | 228%
Phage # 21 Fab (IL-13-142 library) (Fab, V domains shown, Fab on phage pIX) VH: QVTLKESGPVLVKPTETLTLTCTVSGFSLSTYGMGVGWIRQPPGKALEWLAHIWWDDVKRYNPALKSRLTISKDTSKSQVVLTMTNMDPVDTATYYCARMGSDYDVWFDYWGQGTLVTVSS VL: DIQMTQSPSTLSASVGDRVTITCRASKSISKYLAWYQQKPGKAPKLLIYSGSTLQSGVPSRFSGSGSGTEFTLTISSLQPDDFATYYCQQWSDGPYTFGGGTKVEIK | 276%
Phage # 30 Fab (IL-13-142 library) (Fab, V domains shown, Fab on phage pIX) VH: QVTLKESGPVLVKPTETLTLTCTVSGFSLSTYGMGVGWIRQPPGKALEWLAHIWWDDVKRYNPALKSRLTISKDTSKSQVVLTMTNMDPVDTATYYCARMGSDYDVWFDYWGQGTLVTVSS VL: DIQMTQSPSTLSASVGDRVTITCRASKSISKYLAWYQQKPGKAPKLLIYSGSTLQSGVPSRFSGSGSGTEFTLTISSLQPDDFATYYCQQHLWGPYTFGGGTKVEIK | 140%
Phage # 04 Fab (IL-13-142 library) (Fab, V domains shown, Fab on phage pIX) VH: QVTLKESGPVLVKPTETLTLTCTVSGFSLSTYGMGVGWIRQPPGKALEWLAHIWWDDVKRYNPALKSRLTISKDTSKSQVVLTMTNMDPVDTATYYCARMGSDYDVWFDYWGQGTLVTVSS VL: DIQMTQSPSTLSASVGDRVTITCRASKSISKYLAWYQQKPGKAPKLLIYSGSTLQSGVPSRFSGSGSGTEFTLTISSLQPDDFATYYCQQQDLGPYTFGGGTKVEIK | 127%
Phage # 29 Fab (IL-13-142 library) (Fab, V domains shown, Fab on phage pIX) VH: QVTLKESGPVLVKPTETLTLTCTVSGFSLSTYGMGVGWIRQPPGKALEWLAHIWWDDVKRYNPALKSRLTISKDTSKSQVVLTMTNMDPVDTATYYCARMGSDYDVWFDYWGQGTLVTVSS VL: DIQMTQSPSTLSASVGDRVTITCRASKSISKYLAWYQQKPGKAPKLLIYSGSTLQSGVPSRFSGSGSGTEFTLTISSLQPDDFATYYCQQHWMAPYTFGGGTKVEIK | 182%
Phage # 36 Fab (IL-13-142 library) (Fab, V domains shown, Fab on phage pIX) VH: QVTLKESGPVLVKPTETLTLTCTVSGFSLSTYGMGVGWIRQPPGKALEWLAHIWWDDVKRYNPALKSRLTISKDTSKSQVVLTMTNMDPVDTATYYCARMGSDYDVWFDYWGQGTLVTVSS VL: DIQMTQSPSTLSASVGDRVTITCRASKSISKYLAWYQQKPGKAPKLLIYSGSTLQSGVPSRFSGSGSGTEFTLTISSLQPDDFATYYCQQHELGPYTFGGGTKVEIK | 196%
Phage # 13 Fab (IL-13-142 library) (Fab, V domains shown, Fab on phage pIX) VH: QVTLKESGPVLVKPTETLTLTCTVSGFSLSTYGMGVGWIRQPPGKALEWLAHIWWDDVKRYNPALKSRLTISKDTSKSQVVLTMTNMDPVDTATYYCARMGSDYDVWFDYWGQGTLVTVSS VL: DIQMTQSPSTLSASVGDRVTITCRASKSISKYLAWYQQKPGKAPKLLIYSGSTLQSGVPSRFSGSGSGTEFTLTISSLQPDDFATYYCQQHEWGPYTFGGGTKVEIK | 196%
Phage # 16 Fab (IL-13-142 library) (Fab, V domains shown, Fab on phage pIX) VH: QVTLKESGPVLVKPTETLTLTCTVSGFSLSTYGMGVGWIRQPPGKALEWLAHIWWDDVKRYNPALKSRLTISKDTSKSQVVLTMTNMDPVDTATYYCARMGSDYDVWFDYWGQGTLVTVSS VL: DIQMTQSPSTLSASVGDRVTITCRASKSISKYLAWYQQKPGKAPKLLIYSGSTLQSGVPSRFSGSGSGTEFTLTISSLQPDDFATYYCQQHVGGPYTFGGGTKVEIK | 206%
Phage # 31 Fab (IL-13-142 library) (Fab, V domains shown, Fab on phage pIX) VH: QVTLKESGPVLVKPTETLTLTCTVSGFSLSTYGMGVGWIRQPPGKALEWLAHIWWDDVKRYNPALKSRLTISKDTSKSQVVLTMTNMDPVDTATYYCARMGSDYDVWFDYWGQGTLVTVSS VL: DIQMTQSPSTLSASVGDRVTITCRASKSISKYLAWYQQKPGKAPKLLIYSGSTLQSGVPSRFSGSGSGTEFTLTISSLQPDDFATYYCQQHFRRPYTFGGGTKVEIK | 288%
Phage # 27 Fab (IL-13-142 library) (Fab, V domains shown, Fab on phage pIX) VH: QVTLKESGPVLVKPTETLTLTCTVSGFSLSTYGMGVGWIRQPPGKALEWLAHIWWDDVKRYNPALKSRLTISKDTSKSQVVLTMTNMDPVDTATYYCARMGSDYDVWFDYWGQGTLVTVSS VL: DIQMTQSPSTLSASVGDRVTITCRASKSISKYLAWYQQKPGKAPKLLIYSGSTLQSGVPSRFSGSGSGTEFTLTISSLQPDDFATYYCQQHNDSPYTFGGGTKVEIK | 238%
Phage # 10 Fab (IL-13-142 library) (Fab, V domains shown, Fab on phage pIX) VH: QVTLKESGPVLVKPTETLTLTCTVSGFSLSTYGMGVGWIRQPPGKALEWLAHIWWDDVKRYNPALKSRLTISKDTSKSQVVLTMTNMDPVDTATYYCARMGSDYDVWFDYWGQGTLVTVSS VL: DIQMTQSPSTLSASVGDRVTITCRASKSISKYLAWYQQKPGKAPKLLIYSGSTLQSGVPSRFSGSGSGTEFTLTISSLQPDDFATYYCQQHLWGPYTFGGGTKVEIK | 318%
Phage # 06 Fab (IL-13-142 library) (Fab, V domains shown, Fab on phage pIX) VH: QVTLKESGPVLVKPTETLTLTCTVSGFSLSTYGMGVGWIRQPPGKALEWLAHIWWDDVKRYNPALKSRLTISKDTSKSQVVLTMTNMDPVDTATYYCARMGSDYDVWFDYWGQGTLVTVSS VL: DIQMTQSPSTLSASVGDRVTITCRASKSISKYLAWYQQKPGKAPKLLIYSGSTLQSGVPSRFSGSGSGTEFTLTISSLQPDDFATYYCQQPLTHPYTFGGGTKVEIK | 232%
Phage # 05 Fab (IL-13-142 library) (Fab, V domains shown, Fab on phage pIX) VH: QVTLKESGPVLVKPTETLTLTCTVSGFSLSTYGMGVGWIRQPPGKALEWLAHIWWDDVKRYNPALKSRLTISKDTSKSQVVLTMTNMDPVDTATYYCARMGSDYDVWFDYWGQGTLVTVSS VL: DIQMTQSPSTLSASVGDRVTITCRASKSISKYLAWYQQKPGKAPKLLIYSGSTLQSGVPSRFSGSGSGTEFTLTISSLQPDDFATYYCQQHVSGPYTFGGGTKVEIK | 320%
